Among the data in paper PMC9882672 are membrane Fpn of HEK 293 cells with 0.25 μM holo-Tf for 5 to 60 minutes (membrane protein isolation, immunoblot), decrease compared to 0 minutes and membrane Fpn of HEK 293 cells with 500 nM hepcidin for 5 to 60 minutes (membrane protein isolation, immunoblot), decrease compared to holo-Tf treatment values, retold here.

For this assay, the target named is ferroportin (human (endogenous in HEK 293)) (UniProt Q9NP59).
UniProt Q9NP59, sequence (Q9NP59 whole entry): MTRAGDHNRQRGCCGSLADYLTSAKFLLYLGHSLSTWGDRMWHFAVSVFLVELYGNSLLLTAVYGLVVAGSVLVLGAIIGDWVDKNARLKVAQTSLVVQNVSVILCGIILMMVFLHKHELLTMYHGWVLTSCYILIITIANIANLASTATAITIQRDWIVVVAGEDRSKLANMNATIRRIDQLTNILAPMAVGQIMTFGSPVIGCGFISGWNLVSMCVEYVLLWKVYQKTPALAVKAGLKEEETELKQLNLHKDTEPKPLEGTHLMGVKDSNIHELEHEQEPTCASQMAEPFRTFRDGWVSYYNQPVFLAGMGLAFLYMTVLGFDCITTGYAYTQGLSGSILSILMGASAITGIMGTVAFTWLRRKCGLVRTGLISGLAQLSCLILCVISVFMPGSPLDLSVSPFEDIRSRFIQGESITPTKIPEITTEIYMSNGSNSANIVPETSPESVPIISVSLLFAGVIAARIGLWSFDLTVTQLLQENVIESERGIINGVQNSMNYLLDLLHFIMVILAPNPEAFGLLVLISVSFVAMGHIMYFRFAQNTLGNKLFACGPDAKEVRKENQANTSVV

With “holo (iron bound)-transferrin (from UniProt P02787 20-698) (natural protein)”, the membrane Fpn of HEK 293 cells with 0.25 μM holo-Tf for 5 to 60 minutes (membrane protein isolation, immunoblot), decrease compared to 0 minutes is 20%.
As to hepcidin (peptide), the membrane Fpn of HEK 293 cells with 500 nM hepcidin for 5 to 60 minutes (membrane protein isolation, immunoblot), decrease compared to holo-Tf treatment stood at 70%.
